Assay results: article PMC3145109

Target: T1, KmtR (UniProt O53838 1-130)
T1 sequence: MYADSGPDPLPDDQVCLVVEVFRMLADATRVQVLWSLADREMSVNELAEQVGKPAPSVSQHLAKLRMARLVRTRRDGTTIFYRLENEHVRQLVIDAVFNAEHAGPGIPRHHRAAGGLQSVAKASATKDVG
Experiment: fluorescence anisotropy

B1: PRv0286 32-mer (Rv0826 promoter) (dsDNA)
DNA 1: TCCATAGTGACAACGTGCGTAGTCAGAATTCG
DNA 2: CGAATTCTGACTACGCACGTTGTCACTATGGA
B1: no binding.
